Results reported in EP2149585A1.

Target: CD20 on the cell surface (human) (UniProt P11836)
Experiment: cell-based or functional assay

Sequence of CD20 on the cell surface (human) (P11836 whole entry): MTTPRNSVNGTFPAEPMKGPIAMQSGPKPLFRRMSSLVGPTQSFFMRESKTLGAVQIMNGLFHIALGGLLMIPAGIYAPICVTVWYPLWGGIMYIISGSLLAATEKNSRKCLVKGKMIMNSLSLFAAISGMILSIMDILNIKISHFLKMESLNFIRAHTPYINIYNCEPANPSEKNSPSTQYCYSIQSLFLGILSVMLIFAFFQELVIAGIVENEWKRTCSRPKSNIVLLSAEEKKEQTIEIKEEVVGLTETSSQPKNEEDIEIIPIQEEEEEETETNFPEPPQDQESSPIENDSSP

rituximab (antibody)
% lysis - % lysis IgG1; ADCC-006, huNK E:T 2, 0.01 ug/ml: 33%
% lysis - % lysis IgG1; ADCC-006, huNK E:T 2, 0.1 ug/ml: 44.6%
% lysis - % lysis IgG1; ADCC-006, huNK E:T 2, 1 ug/ml: 45.7%
% lysis - % lysis IgG1; ADCC-006, huNK E:T 2, 10 ug/ml: 37.9%
% lysis - % lysis IgG1; ADCC-009 Calcein AM, huNK E:T 10, 0.04 ug/ml: 81.5%
% lysis - % lysis IgG1; ADCC-009 Calcein AM, huNK E:T 10, 0.2 ug/ml: 90.2%
% lysis - % lysis IgG1; ADCC-009 Calcein AM, huNK E:T 10, 1 ug/ml: 87.7%
% lysis - % lysis IgG1; ADCC-009 Calcein AM, huNK E:T 10, 5 ug/ml: 83.9%
% lysis - % lysis IgG1; ADCC-011 Calcein AM, huNK E:T 8, 0.0004 ug/ml: -1.04%
% lysis - % lysis IgG1; ADCC-011 Calcein AM, huNK E:T 8, 0.002 ug/ml: 4.16%
% lysis - % lysis IgG1; ADCC-011 Calcein AM, huNK E:T 8, 0.01 ug/ml: 10.1%
% lysis - % lysis IgG1; ADCC-011 Calcein AM, huNK E:T 8, 1 ug/ml: 19.3%
% lysis - % lysis IgG1; ADCC-012 Calcein AM, huNK E:T 10, 0.001 ug/ml: 21.1%
% lysis - % lysis IgG1; ADCC-012 Calcein AM, huNK E:T 10, 0.005 ug/ml: 25.7%
% lysis - % lysis IgG1; ADCC-012 Calcein AM, huNK E:T 10, 0.01 ug/ml: 37.9%
% lysis - % lysis IgG1; ADCC-012 Calcein AM, huNK E:T 10, 1 ug/ml: 52.5%
% lysis - % lysis IgG1; ADCC-012 Calcein AM, huNK E:T 10, 10 ug/ml: 37.4%
% lysis - % lysis IgG1; ADCC-013 51Cr, PBMC E:T 100, 0.001 ug/ml: 0.35%
% lysis - % lysis IgG1; ADCC-013 51Cr, PBMC E:T 100, 0.01 ug/ml: 9.87%
% lysis - % lysis IgG1; ADCC-013 51Cr, PBMC E:T 100, 0.1 ug/ml: 24.7%
% lysis - % lysis IgG1; ADCC-013 51Cr, PBMC E:T 100, 1 ug/ml: 29.7%
% lysis; ADCC-006, huNK E:T 2, 0.01 ug/ml: 28.5%
% lysis; ADCC-006, huNK E:T 2, 0.1 ug/ml: 33.6%
% lysis; ADCC-006, huNK E:T 2, 1 ug/ml: 37.1%
% lysis; ADCC-006, huNK E:T 2, 10 ug/ml: 34.8%
% lysis; ADCC-009 Calcein AM, huNK E:T 10, 0.04 ug/ml: 84.9%
% lysis; ADCC-009 Calcein AM, huNK E:T 10, 0.2 ug/ml: 88.8%
% lysis; ADCC-009 Calcein AM, huNK E:T 10, 1 ug/ml: 88.2%
% lysis; ADCC-011 Calcein AM, huNK E:T 8, 0.0004 ug/ml: 5.99%
% lysis; ADCC-011 Calcein AM, huNK E:T 8, 0.002 ug/ml: 9.58%
% lysis; ADCC-011 Calcein AM, huNK E:T 8, 0.01 ug/ml: 14.7%
% lysis; ADCC-011 Calcein AM, huNK E:T 8, 1 ug/ml: 22.4%
% lysis; ADCC-012 Calcein AM, huNK E:T 10, 0.001 ug/ml: 33.1%
% lysis; ADCC-012 Calcein AM, huNK E:T 10, 0.005 ug/ml: 39.3%
% lysis; ADCC-012 Calcein AM, huNK E:T 10, 0.01 ug/ml: 50.2%
% lysis; ADCC-012 Calcein AM, huNK E:T 10, 1 ug/ml: 66%
% lysis; ADCC-012 Calcein AM, huNK E:T 10, 10 ug/ml: 50.8%
% lysis; ADCC-013 51Cr, PBMC E:T 100, 0.001 ug/ml: 3.13%
% lysis; ADCC-013 51Cr, PBMC E:T 100, 0.01 ug/ml: 12.8%
% lysis; ADCC-013 51Cr, PBMC E:T 100, 0.1 ug/ml: 27.2%
% lysis; ADCC-013 51Cr, PBMC E:T 100, 1 ug/ml: 32.3%
Average % lysis at 1 ug/ml concentration of mAbs (% lysis - % lysis IgG1): 47.2%
